Drawing on the supplement of paper PMC6755084, this text covers fraction ligated for 97 sequences.

This data set concerns F1*sub RNA substrate (template-directed ligation). Kind of data set: fraction ligated after 30 min (ligated reads / total reads); higher = more ligase activity; sequences stand for … in GAGACCGCAACTGAAAAGTTGT…AGTTCTGCACGTAGAAGCAAAAGGC
The conditions noted are these: 42 °C. In outline: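 Ribozyme variants were transcribed with T7 from PCR-amplified oligo-pool templates and gel-purified. Ligated and unligated bands, separated on gel, were reverse transcribed with barcoded primers and sequenced on a MiSeq, with core bases filtered at quality ≥20. Fraction ligated per variant was computed as ligated reads divided by total reads.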
Sequence “TATCACTTGCGTAAGACACTTGGATGGGTTG [3d1687]” had a fraction ligated of 0.796.

Consider “TATCACTTGCGTAAGACACTTGGATGGTTGA [3d1685]”, for which the fraction ligated was determined as 0.152.

Turning to “TATCACTTGCGTAAGACACTTGGTGGGTTGA [3d1683]”, the fraction ligated turned out to be 0.139.

As to “TATCACTTGCGTAAGACACTTTATGGGTTGA [3d1688]”, the fraction ligated was 0.12.

“TATCACTTGCGTAAGACACTTTGAGGGTTGA [3d1690]” had a fraction ligated of 0.0844.

In the case of “TATCACTTGCGTAAGACACTTTGATGGGTTA [3d1692]”, the fraction ligated came to 0.138.

“TATCACTTGCGTAAGACACTTTGATGGGTTG [3d1693]”: the fraction ligated worked out at 0.725.

“TATCACTTGCGTAAGACACTTTGATGGTTGA [3d1691]”: the fraction ligated came to 0.1.

With “TATCACTTGCGTAAGACACTTTGGAGGGTTA [3d1699]”, the fraction ligated stood at 0.122.

“TATCACTTGCGTAAGACACTTTGGAGGGTTG [3d1700]” displayed a fraction ligated of 0.0669.

On to “TATCACTTGCGTAAGACACTTTGGAGGTTGA [3d1698]”, for which the fraction ligated is 0.0604.

In the case of “TATCACTTGCGTAAGACACTTTGGATGGGTT [3d1703]”, the fraction ligated was 0.704.

In turn, “TATCACTTGCGTAAGACACTTTGGATGGGTTA [2d177]” came in with a fraction ligated of 0.822.

With “TATCACTTGCGTAAGACACTTTGGATGGGTTG [2d178]”, the fraction ligated was 0.825.

As for TATCACTTGCGTAAGACACTTTGGATGGGTTGA [1d9], the fraction ligated worked out at 0.85.

On to “TATCACTTGCGTAAGACACTTTGGATGGTTA [3d1701]”, for which the fraction ligated turned out to be 0.227.

The sequence “TATCACTTGCGTAAGACACTTTGGATGGTTG [3d1702]” gave a fraction ligated of 0.208.

With “TATCACTTGCGTAAGACACTTTGGATGGTTGA [2d176]”, the fraction ligated turned out to be 0.324.

On to “TATCACTTGCGTAAGACACTTTGGGGGTTGA [3d1694]”, for which the fraction ligated turned out to be 0.122.

“TATCACTTGCGTAAGACACTTTGGTGGGTTA [3d1696]” returned a fraction ligated of 0.0753.

The sequence “TATCACTTGCGTAAGACACTTTGGTGGGTTG [3d1697]” had a fraction ligated of 0.038.

The sequence “TATCACTTGCGTAAGACACTTTGGTGGTTGA [3d1695]” came in with a fraction ligated of 0.0605.

As to “TATCACTTGCGTAAGACACTTTGTGGGTTGA [3d1689]”, the fraction ligated turned out to be 0.05.

For “TATCACTTGCGTAAGACATTGGATGGGTTGA [3d1674]”, the fraction ligated came to 0.802.

The sequence “TATCACTTGCGTAAGACATTTGATGGGTTGA [3d1675]” had a fraction ligated of 0.574.

“TATCACTTGCGTAAGACATTTGGAGGGTTGA [3d1677]” yielded a fraction ligated of 0.0596.

In turn, “TATCACTTGCGTAAGACATTTGGATGGGTTA [3d1679]” gave a fraction ligated of 0.808.

As for “TATCACTTGCGTAAGACATTTGGATGGGTTG [3d1680]”, the fraction ligated stood at 0.84.

On to “TATCACTTGCGTAAGACATTTGGATGGTTGA [3d1678]”, for which the fraction ligated turned out to be 0.16.

For “TATCACTTGCGTAAGACATTTGGTGGGTTGA [3d1676]”, the fraction ligated amounted to 0.0926.

The sequence “TATCACTTGCGTAAGACCTTGGATGGGTTGA [3d1667]” came in with a fraction ligated of 0.797.

On to “TATCACTTGCGTAAGACCTTTGATGGGTTGA [3d1668]”, for which the fraction ligated came to 0.789.

“TATCACTTGCGTAAGACCTTTGGAGGGTTGA [3d1670]” displayed a fraction ligated of 0.0866.

Turning to “TATCACTTGCGTAAGACCTTTGGATGGGTTA [3d1672]”, the fraction ligated was found to be 0.785.

With “TATCACTTGCGTAAGACCTTTGGATGGGTTG [3d1673]”, the fraction ligated came out at 0.81.

Sequence “TATCACTTGCGTAAGACCTTTGGATGGTTGA [3d1671]” had a fraction ligated of 0.176.

Turning to “TATCACTTGCGTAAGACCTTTGGTGGGTTGA [3d1669]”, the fraction ligated was 0.137.

Regarding “TATCACTTGCGTAAGACTTTGGATGGGTTGA [3d1649]”, the fraction ligated was 0.849.

Sequence “TATCACTTGCGTAAGCACTTGGATGGGTTGA [3d1652]” came in with a fraction ligated of 0.792.

“TATCACTTGCGTAAGCACTTTGATGGGTTGA [3d1653]” displayed a fraction ligated of 0.802.

In turn, “TATCACTTGCGTAAGCACTTTGGAGGGTTGA [3d1655]” returned a fraction ligated of 0.178.

Consider “TATCACTTGCGTAAGCACTTTGGATGGGTTA [3d1657]”, for which the fraction ligated came out at 0.812.

“TATCACTTGCGTAAGCACTTTGGATGGGTTG [3d1658]”: the fraction ligated was found to be 0.832.

“TATCACTTGCGTAAGCACTTTGGATGGTTGA [3d1656]” showed a fraction ligated of 0.705.

Turning to “TATCACTTGCGTAAGCACTTTGGTGGGTTGA [3d1654]”, the fraction ligated turned out to be 0.366.

With “TATCACTTGCGTAAGCATTTGGATGGGTTGA [3d1651]”, the fraction ligated was 0.83.

Turning to “TATCACTTGCGTAAGCCTTTGGATGGGTTGA [3d1650]”, the fraction ligated was 0.806.

“TATCACTTGCGTAGAACTTTGGATGGGTTGA [3d1629]” returned a fraction ligated of 0.862.

The sequence “TATCACTTGCGTAGACACTTGGATGGGTTGA [3d1632]” registered a fraction ligated of 0.779.

The sequence “TATCACTTGCGTAGACACTTTGATGGGTTGA [3d1633]” showed a fraction ligated of 0.803.

In the case of “TATCACTTGCGTAGACACTTTGGAGGGTTGA [3d1635]”, the fraction ligated turned out to be 0.105.

“TATCACTTGCGTAGACACTTTGGATGGGTTA [3d1637]” displayed a fraction ligated of 0.781.

“TATCACTTGCGTAGACACTTTGGATGGGTTG [3d1638]”: the fraction ligated came to 0.816.

In the case of “TATCACTTGCGTAGACACTTTGGATGGGTTGA [2d166]”, the fraction ligated was determined as 0.835.

In the case of “TATCACTTGCGTAGACACTTTGGATGGTTGA [3d1636]”, the fraction ligated is 0.296.

As for “TATCACTTGCGTAGACACTTTGGTGGGTTGA [3d1634]”, the fraction ligated was determined as 0.0947.

“TATCACTTGCGTAGACATTTGGATGGGTTGA [3d1631]” returned a fraction ligated of 0.821.

“TATCACTTGCGTAGACCTTTGGATGGGTTGA [3d1630]” gave a fraction ligated of 0.817.

As to “TATCACTTGCGTAGCACTTTGGATGGGTTGA [3d1628]”, the fraction ligated turned out to be 0.859.

Consider “TATCACTTGCGTGACACTTTGGATGGGTTGA [3d1626]”, for which the fraction ligated turned out to be 0.829.

“TATCACTTGCTAAACACTTTGGATGGGTTGA [3d1601]”: the fraction ligated was determined as 0.777.

In turn, “TATCACTTGCTAAGAACTTTGGATGGGTTGA [3d1603]” came in with a fraction ligated of 0.831.

Regarding “TATCACTTGCTAAGACACTTGGATGGGTTGA [3d1606]”, the fraction ligated stood at 0.782.

For the sequence “TATCACTTGCTAAGACACTTTGATGGGTTGA [3d1607]”, the fraction ligated worked out at 0.738.

In the case of “TATCACTTGCTAAGACACTTTGGAGGGTTGA [3d1609]”, the fraction ligated is 0.13.

As to “TATCACTTGCTAAGACACTTTGGATGGGTTA [3d1611]”, the fraction ligated stood at 0.773.

“TATCACTTGCTAAGACACTTTGGATGGGTTG [3d1612]” showed a fraction ligated of 0.8.

In the case of “TATCACTTGCTAAGACACTTTGGATGGGTTGA [2d164]”, the fraction ligated worked out at 0.822.

Sequence “TATCACTTGCTAAGACACTTTGGATGGTTGA [3d1610]” came in with a fraction ligated of 0.351.

Turning to “TATCACTTGCTAAGACACTTTGGTGGGTTGA [3d1608]”, the fraction ligated was 0.11.

In turn, “TATCACTTGCTAAGACATTTGGATGGGTTGA [3d1605]” returned a fraction ligated of 0.849.

In turn, “TATCACTTGCTAAGACCTTTGGATGGGTTGA [3d1604]” yielded a fraction ligated of 0.811.

The sequence “TATCACTTGCTAAGCACTTTGGATGGGTTGA [3d1602]” showed a fraction ligated of 0.834.

In turn, “TATCACTTGCTAGACACTTTGGATGGGTTGA [3d1600]” showed a fraction ligated of 0.805.

On to “TATCACTTGGAAGACACTTTGGATGGGTTGA [3d1585]”, for which the fraction ligated was found to be 0.823.

For “TATCACTTGGTAAACACTTTGGATGGGTTGA [3d1587]”, the fraction ligated was 0.826.

Regarding “TATCACTTGGTAAGAACTTTGGATGGGTTGA [3d1589]”, the fraction ligated turned out to be 0.804.

On to “TATCACTTGGTAAGACACTTGGATGGGTTGA [3d1592]”, for which the fraction ligated amounted to 0.795.

“TATCACTTGGTAAGACACTTTGATGGGTTGA [3d1593]” had a fraction ligated of 0.776.

The sequence “TATCACTTGGTAAGACACTTTGGAGGGTTGA [3d1595]” registered a fraction ligated of 0.0523.

Regarding “TATCACTTGGTAAGACACTTTGGATGGGTTA [3d1597]”, the fraction ligated worked out at 0.733.

For “TATCACTTGGTAAGACACTTTGGATGGGTTG [3d1598]”, the fraction ligated worked out at 0.809.

Take “TATCACTTGGTAAGACACTTTGGATGGGTTGA [2d163]”: the fraction ligated is 0.813.

As to “TATCACTTGGTAAGACACTTTGGATGGTTGA [3d1596]”, the fraction ligated was determined as 0.134.

“TATCACTTGGTAAGACACTTTGGTGGGTTGA [3d1594]” showed a fraction ligated of 0.047.

For the sequence “TATCACTTGGTAAGACATTTGGATGGGTTGA [3d1591]”, the fraction ligated was 0.832.

In turn, “TATCACTTGGTAAGACCTTTGGATGGGTTGA [3d1590]” registered a fraction ligated of 0.765.

Sequence “TATCACTTGGTAAGCACTTTGGATGGGTTGA [3d1588]” gave a fraction ligated of 0.818.

“TATCACTTGGTAGACACTTTGGATGGGTTGA [3d1586]” yielded a fraction ligated of 0.829.

For “TATCACTTGTAAGACACTTTGGATGGGTTGA [3d1311]”, the fraction ligated was determined as 0.837.

Sequence “TATCACTTGTCAAACACTTTGGATGGGTTGA [3d1811]” registered a fraction ligated of 0.802.

As to “TATCACTTGTCAAGAACTTTGGATGGGTTGA [3d1813]”, the fraction ligated amounted to 0.839.

Sequence “TATCACTTGTCAAGACACTTGGATGGGTTGA [3d1816]” returned a fraction ligated of 0.76.

As for “TATCACTTGTCAAGACACTTTGATGGGTTGA [3d1817]”, the fraction ligated worked out at 0.715.

Turning to “TATCACTTGTCAAGACACTTTGGAGGGTTGA [3d1819]”, the fraction ligated came out at 0.138.

Regarding “TATCACTTGTCAAGACACTTTGGATGGGTTA [3d1821]”, the fraction ligated worked out at 0.781.

“TATCACTTGTCAAGACACTTTGGATGGGTTG [3d1822]”: the fraction ligated was found to be 0.777.
